In the supplement of paper PMC12042874:
± gives the uncertainty stated by the source.

assay: amyloid nucleation score (Sup35N fusion, yeast selection) (log enrichment); library NNK1; higher = more nucleation; inactive = no reads after selection
Procedure, shortened: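 Growth for 7 days at 30°C on medium lacking adenine and uracil followed a 24-hour induction with 100 μM copper sulfate of psi-negative yeast expressing peptides of 20 random codons fused to Sup35N. Input and output plasmid inserts were sequenced with Illumina, and sequences with under 100 input reads were excluded. Nucleation score is the DiMSum log enrichment of output over input reads, centred on the mode score of non-aggregating sequences.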

In the case of AALVCPRFLTSKANFVPSKG, the amyloid nucleation score is reported as “inactive”.
With AGLWTLRQMWWFTWGSIDII the amyloid nucleation score was “inactive”.
In the case of AIAIPDRCLFYATRFSCDSR, the amyloid nucleation score is reported as “inactive”.
In the case of ASHFELYRLRKGLMCSVVSI, the amyloid nucleation score is reported as “inactive”.
In the case of ASSVHPRYFLNMTSSGVRKS, the amyloid nucleation score is reported as “inactive”.
In the case of ATRVPPFMEVLSPYH, the amyloid nucleation score is reported as “inactive”.

AARVGVVVF and AASTNSGR are within error of each other in amyloid nucleation score: 0.065 ± 0.41 for the first, 0.305 ± 0.68 for the second.

AASVSCNLQQKAKRVAFFLM and ACSPSLVL are within error of each other in amyloid nucleation score: 0.726 ± 1.1 for the first, 1.52 ± 0.84 for the second.

Going from ADCPLCGTYNLSYCMVRLDI to ADNFLFWHVIEYKENLDHAR, the amyloid nucleation score falls from 0.349 ± 0.28 to -1.32 ± 1.1.

Going from AEAKN to AEHNYVRRELAGEPNLV, the amyloid nucleation score rises from -1.01 ± 0.9 to 3.11 ± 0.095.

AEVTDMGDLFSERMLSVVQI and AFDQGGIYTVPSGKNFPCTL are within error of each other in amyloid nucleation score: -0.499 ± 1.9 for the first, -0.186 ± 0.4 for the second.

AFGADKTRYMSVFTKCVS and AFIFMSTATDDLFFAINL are within error of each other in amyloid nucleation score: 0.253 ± 0.37 for the first, -0.139 ± 0.35 for the second.

AFPTIAYMIWVFVDVQLCSE and AFRRCTKSFIL are within error of each other in amyloid nucleation score: 1.25 ± 0.58 for the first, -0.427 ± 1.9 for the second.

Compared with AGFVYFPMYNKLMELFTRGI, AGIQIGWVIHSLCSSELRLS is lower in amyloid nucleation score: 1.29 ± 0.66 for the first, -0.875 ± 0.69 for the second.

AGSLAM and AGVCRNNSPLIHTFNF are within error of each other in amyloid nucleation score: -0.246 ± 0.48 for the first, 0.728 ± 0.64 for the second.

AHLAVPSQLNECFIVSLWV and AHSANSKIVSFRMLDDYRPD are within error of each other in amyloid nucleation score: 0.328 ± 0.76 for the first, 1.1 ± 0.39 for the second.

AHSCDGPCRPHVTAVKALVL and AICRLDVVWVT are within error of each other in amyloid nucleation score: 0.089 ± 0.48 for the first, 0.135 ± 0.37 for the second.

Compared with AICWPVILSTDLTQTYLAWT, AIHMEHCCFVNVQRILRFVV is higher in amyloid nucleation score: -0.247 ± 0.3 for the first, 4.68 ± 0.092 for the second.

AILNRLLSLPSFPVPSSDSQ and AIPLSDRR are within error of each other in amyloid nucleation score: 0.466 ± 1.4 for the first, 1.48 ± 0.88 for the second.

AIQCSTARNDVECKLFTYVL and AIQYHNWGSEACLWHERESG are within error of each other in amyloid nucleation score: 0.086 ± 0.71 for the first, 0.225 ± 0.26 for the second.

Going from AIRWYGMDDMPTRGYQWSPA to AISVGVFRVWC, the amyloid nucleation score rises from -0.128 ± 0.59 to 3.53 ± 0.09.

AIVTSGNRE and AKGYSYCKLI are within error of each other in amyloid nucleation score: -0.015 ± 0.51 for the first, -0.804 ± 0.3 for the second.

AKVCLKSVTQFTTHLLMSRG and AKVYSGIPWWNFSTFLRGEV are within error of each other in amyloid nucleation score: -0.009 ± 0.77 for the first, -0.668 ± 1.4 for the second.

AKWPARSPSLQLGNFWFDTT and ALAVVVLFLCVSTPAYVAFE are within error of each other in amyloid nucleation score: 0.161 ± 0.59 for the first, 0.923 ± 0.53 for the second.

ALCLSRARSSG and ALKQPVYDGRGPRLGIGPRR are within error of each other in amyloid nucleation score: -0.152 ± 0.68 for the first, -0.124 ± 1 for the second.

ALKWSTLLTLFLGYSHIVSM and ALLIPINTLGDN are within error of each other in amyloid nucleation score: 1.46 ± 0.38 for the first, 0.605 ± 0.7 for the second.

ALMNGQMVTGALITEWYNWC and ALPIMKLMACVCGQKGMTYA are within error of each other in amyloid nucleation score: 0.439 ± 0.97 for the first, -0.047 ± 0.69 for the second.

ALPYVYRTLVNNLLIPSSGL and ALSSWLLFGSTCQDSDCFKD are within error of each other in amyloid nucleation score: 1.02 ± 0.67 for the first, 1.16 ± 0.76 for the second.

First: ALTRS
Second: AMFAMLNDRGRLGACYLVGK
The amyloid nucleation score of the first is lower: -0.074 ± 0.49 for the first, 1.55 ± 0.78 for the second.

Going from AMNFWRKILIFSELVYG to AMQGACGFISGGFSVARVFV, the amyloid nucleation score falls from 2.19 ± 0.5 to 0.296 ± 0.25.

ANDKHLVLGWAQVVTQMDGR and ANELFTVDKKSVGYIPTHTL are within error of each other in amyloid nucleation score: 0.731 ± 0.86 for the first, 0.445 ± 0.56 for the second.

ANIYGWDDPYFEQL and ANMYY are within error of each other in amyloid nucleation score: 0.045 ± 0.75 for the first, -0.279 ± 1.1 for the second.

ANSSF and ANSSLLEFHTYDWDLYSACL are within error of each other in amyloid nucleation score: -0.126 ± 0.54 for the first, -1.06 ± 1.5 for the second.

Going from ANVNSWTRPAIMIVLDWGVP to APCRVMIYINMSMDYWTMES, the amyloid nucleation score rises from 0.868 ± 0.58 to 5.19 ± 0.072.

First: APKITGQTSNVGTRA
Second: APPLSFEFL
The amyloid nucleation score of the first is lower: -0.028 ± 0.52 for the first, 3.06 ± 0.092 for the second.

Going from APVSIKCRFL to AQFSTKPQQRIP, the amyloid nucleation score rises from 0.357 ± 0.55 to 1.51 ± 0.56.

AQLGDDYVRCHSTILSTRRL and AQLWRARREFSFMTPMPSVS are within error of each other in amyloid nucleation score: 0.167 ± 0.62 for the first, -0.624 ± 1.5 for the second.

First: AQLYVNWFCVWSFKE
Second: AQQLGMMGVGFMQRWNCRF
The amyloid nucleation score of the first is higher: 6.2 ± 0.08 for the first, -1.74 ± 2.4 for the second.

ARFRYVESSRQMSMNVVCLT and ARGCD are within error of each other in amyloid nucleation score: 0.194 ± 0.38 for the first, -0.247 ± 1.1 for the second.

Going from ARIEFSGWFHPQLDLVFFVQ to ARLDRSFR, the amyloid nucleation score falls from 1.97 ± 0.15 to 0.451 ± 0.55.

First: ARNIVSFDGTFYSFKQTYTP
Second: ARVSRSFVSRAANIHGNCRR
The amyloid nucleation score of the first is higher: 2.12 ± 0.19 for the first, -0.029 ± 1.1 for the second.

ARYSRRRKVMSLLVTGEMDA and ASCVGNINDCRPNIAFWVEE are within error of each other in amyloid nucleation score: -0.038 ± 0.44 for the first, 0.984 ± 0.84 for the second.

ASGVWRQ and ASIKTRTSFRVKVWYWVRNL are within error of each other in amyloid nucleation score: -0.47 ± 0.65 for the first, -0.598 ± 1.7 for the second.

ASLLMLLVGRKICLAQVNKG and ASLLSGQK are within error of each other in amyloid nucleation score: 0.412 ± 0.51 for the first, 0.358 ± 1.1 for the second.

ASRSSIPSG and ASWFLVISTSLVYHSATADR are within error of each other in amyloid nucleation score: -0.038 ± 1 for the first, 0.211 ± 0.39 for the second.

For AVCIMFRVNRFIRIVNTGGC, the amyloid nucleation score was 0.042 ± 0.58.
